Source: patent publication US20190134153A1, “IMMUNOMODULATORY EFFECT OF INHALED KINASE INHIBITOR PEPTIDES IN LUNG” (MOERAE MATRIX, INC., priority 2017, published 2019)

Tests used:
Assay in all cases: Kinase Profiling Assay
Type in all cases: biochemical
Settings in all cases: 100 μM
CaMKIIβ(h) = CaMKIIβ(h) (Homo sapiens, UniProt Q13554)
GRK6(h) = GRK6(h) (Homo sapiens, UniProt P43250)
Hck(h) = Hck(h) (Homo sapiens, UniProt P08631)
LKB1(h) = target: T1, LKB1(h) (Homo sapiens, UniProt Q15831)
T1 sequence (Q15831 1-433): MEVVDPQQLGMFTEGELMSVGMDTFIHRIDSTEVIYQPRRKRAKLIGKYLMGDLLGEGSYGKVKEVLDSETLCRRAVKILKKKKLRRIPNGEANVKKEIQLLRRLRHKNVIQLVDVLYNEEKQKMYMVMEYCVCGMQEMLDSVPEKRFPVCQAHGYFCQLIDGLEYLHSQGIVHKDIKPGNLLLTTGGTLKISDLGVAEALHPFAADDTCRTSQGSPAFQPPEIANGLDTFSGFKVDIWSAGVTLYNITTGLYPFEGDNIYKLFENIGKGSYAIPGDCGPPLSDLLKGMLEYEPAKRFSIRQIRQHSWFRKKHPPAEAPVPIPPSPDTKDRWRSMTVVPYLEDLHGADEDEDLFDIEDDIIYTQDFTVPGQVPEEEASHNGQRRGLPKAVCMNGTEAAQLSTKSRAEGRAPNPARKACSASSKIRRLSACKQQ
T1 sequence (Q7RTN6 1-431 partner): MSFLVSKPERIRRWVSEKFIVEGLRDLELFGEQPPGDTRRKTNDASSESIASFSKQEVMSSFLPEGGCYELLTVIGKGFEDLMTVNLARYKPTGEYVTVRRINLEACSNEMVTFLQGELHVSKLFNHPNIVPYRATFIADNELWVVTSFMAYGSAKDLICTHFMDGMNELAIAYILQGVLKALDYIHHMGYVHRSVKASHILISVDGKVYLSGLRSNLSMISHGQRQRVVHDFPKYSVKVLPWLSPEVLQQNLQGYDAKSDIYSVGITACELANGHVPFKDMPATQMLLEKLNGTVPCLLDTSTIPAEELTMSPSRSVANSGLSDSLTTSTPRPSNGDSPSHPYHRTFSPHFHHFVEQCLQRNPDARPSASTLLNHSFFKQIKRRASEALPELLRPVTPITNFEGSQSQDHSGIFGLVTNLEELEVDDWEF
T1 sequence (Q9Y376 1-341 partner): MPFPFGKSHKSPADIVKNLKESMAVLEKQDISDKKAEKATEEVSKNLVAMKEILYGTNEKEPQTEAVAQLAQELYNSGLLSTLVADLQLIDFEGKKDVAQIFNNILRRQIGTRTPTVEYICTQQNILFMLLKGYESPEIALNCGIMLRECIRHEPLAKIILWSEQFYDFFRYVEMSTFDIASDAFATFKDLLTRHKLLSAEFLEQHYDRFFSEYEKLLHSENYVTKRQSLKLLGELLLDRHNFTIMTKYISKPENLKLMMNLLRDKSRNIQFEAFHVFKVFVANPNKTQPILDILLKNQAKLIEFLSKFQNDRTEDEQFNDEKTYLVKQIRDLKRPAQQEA

MLK1(h) = MLK1(h) (Homo sapiens, UniProt P80192)
PhKγ2(h) = target: T2, PhKγ2(h) (Homo sapiens, UniProt P15735)
T2 sequence (P15735 1-406): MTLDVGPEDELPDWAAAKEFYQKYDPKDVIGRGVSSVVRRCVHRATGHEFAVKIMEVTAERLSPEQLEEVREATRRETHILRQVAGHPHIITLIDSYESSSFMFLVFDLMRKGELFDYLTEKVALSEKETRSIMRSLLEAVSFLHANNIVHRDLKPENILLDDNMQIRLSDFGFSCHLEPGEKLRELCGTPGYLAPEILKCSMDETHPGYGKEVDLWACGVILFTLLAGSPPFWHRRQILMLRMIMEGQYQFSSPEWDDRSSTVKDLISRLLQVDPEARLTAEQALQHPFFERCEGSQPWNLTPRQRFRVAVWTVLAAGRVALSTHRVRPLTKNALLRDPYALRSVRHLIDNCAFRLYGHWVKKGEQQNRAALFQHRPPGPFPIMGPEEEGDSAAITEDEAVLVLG

PKG1β(h) = target: T3, PKG1β(h) (Homo sapiens, UniProt Q13976)
T3 sequence (Q13976 1-686 isoform Q13976-2): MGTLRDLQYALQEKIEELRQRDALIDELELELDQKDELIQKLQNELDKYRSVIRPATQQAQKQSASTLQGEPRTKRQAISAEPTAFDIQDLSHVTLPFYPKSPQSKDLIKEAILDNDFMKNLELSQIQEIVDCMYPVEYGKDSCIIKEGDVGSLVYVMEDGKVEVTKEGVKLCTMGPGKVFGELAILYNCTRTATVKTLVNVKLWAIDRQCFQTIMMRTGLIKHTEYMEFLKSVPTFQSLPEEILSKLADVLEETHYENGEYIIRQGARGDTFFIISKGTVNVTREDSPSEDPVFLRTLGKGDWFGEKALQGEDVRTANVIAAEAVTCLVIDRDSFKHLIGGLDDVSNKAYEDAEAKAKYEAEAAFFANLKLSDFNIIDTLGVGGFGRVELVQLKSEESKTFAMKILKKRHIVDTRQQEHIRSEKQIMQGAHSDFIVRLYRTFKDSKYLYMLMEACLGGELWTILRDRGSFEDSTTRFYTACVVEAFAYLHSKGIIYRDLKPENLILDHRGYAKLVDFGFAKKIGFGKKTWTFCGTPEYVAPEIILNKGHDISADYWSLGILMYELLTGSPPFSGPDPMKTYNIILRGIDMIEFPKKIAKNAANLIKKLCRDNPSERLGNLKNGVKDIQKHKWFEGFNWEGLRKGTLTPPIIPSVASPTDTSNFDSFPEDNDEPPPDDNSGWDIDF

SAPK4(h) = target: T4, SAPK4(h) (Homo sapiens, UniProt O15264)
T4 sequence (O15264 1-365): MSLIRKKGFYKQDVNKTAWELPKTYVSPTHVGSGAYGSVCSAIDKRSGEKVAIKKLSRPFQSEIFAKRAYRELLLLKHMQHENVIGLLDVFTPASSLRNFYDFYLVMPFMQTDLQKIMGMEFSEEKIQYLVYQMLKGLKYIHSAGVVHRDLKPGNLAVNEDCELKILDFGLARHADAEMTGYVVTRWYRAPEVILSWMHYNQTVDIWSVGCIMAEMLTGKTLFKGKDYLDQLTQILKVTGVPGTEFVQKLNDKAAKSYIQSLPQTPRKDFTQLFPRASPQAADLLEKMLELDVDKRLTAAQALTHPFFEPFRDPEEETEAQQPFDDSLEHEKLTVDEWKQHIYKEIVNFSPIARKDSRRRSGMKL

Chain of CaMKIIβ(h) (Q13554 whole entry): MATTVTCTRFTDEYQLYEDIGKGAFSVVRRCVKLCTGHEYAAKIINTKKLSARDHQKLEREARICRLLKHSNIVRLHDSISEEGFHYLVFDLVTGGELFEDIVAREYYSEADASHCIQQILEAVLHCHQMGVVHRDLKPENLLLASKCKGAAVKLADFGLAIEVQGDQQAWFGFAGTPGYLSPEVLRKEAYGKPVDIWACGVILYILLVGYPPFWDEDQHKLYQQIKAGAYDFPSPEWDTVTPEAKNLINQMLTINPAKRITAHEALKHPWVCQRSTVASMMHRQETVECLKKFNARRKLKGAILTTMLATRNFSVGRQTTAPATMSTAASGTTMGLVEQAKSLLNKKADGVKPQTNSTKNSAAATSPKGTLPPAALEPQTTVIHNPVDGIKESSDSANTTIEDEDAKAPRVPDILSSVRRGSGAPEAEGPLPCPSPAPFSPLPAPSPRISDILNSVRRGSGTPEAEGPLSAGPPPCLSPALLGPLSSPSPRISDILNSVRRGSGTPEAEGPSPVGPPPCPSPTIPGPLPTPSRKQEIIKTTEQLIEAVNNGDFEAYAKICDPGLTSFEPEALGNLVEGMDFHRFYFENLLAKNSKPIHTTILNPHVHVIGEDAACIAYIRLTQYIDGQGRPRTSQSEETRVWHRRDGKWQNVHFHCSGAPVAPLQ
Chain of GRK6(h) (P43250 whole entry): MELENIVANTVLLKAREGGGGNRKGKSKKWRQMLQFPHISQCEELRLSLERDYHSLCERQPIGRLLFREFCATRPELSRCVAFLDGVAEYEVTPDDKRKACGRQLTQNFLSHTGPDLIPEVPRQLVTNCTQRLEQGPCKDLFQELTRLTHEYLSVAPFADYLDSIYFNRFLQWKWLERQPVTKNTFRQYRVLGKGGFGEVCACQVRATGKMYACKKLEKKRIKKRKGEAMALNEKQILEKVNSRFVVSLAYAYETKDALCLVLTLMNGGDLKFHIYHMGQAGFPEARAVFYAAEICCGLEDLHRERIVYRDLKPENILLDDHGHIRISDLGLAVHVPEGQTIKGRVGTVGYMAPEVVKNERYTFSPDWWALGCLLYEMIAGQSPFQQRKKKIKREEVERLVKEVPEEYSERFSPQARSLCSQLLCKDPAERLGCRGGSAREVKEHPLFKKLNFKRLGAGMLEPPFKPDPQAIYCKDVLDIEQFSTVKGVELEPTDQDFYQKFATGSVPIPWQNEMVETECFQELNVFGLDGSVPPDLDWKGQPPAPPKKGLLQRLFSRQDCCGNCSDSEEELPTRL
Chain of Hck(h) (P08631 whole entry): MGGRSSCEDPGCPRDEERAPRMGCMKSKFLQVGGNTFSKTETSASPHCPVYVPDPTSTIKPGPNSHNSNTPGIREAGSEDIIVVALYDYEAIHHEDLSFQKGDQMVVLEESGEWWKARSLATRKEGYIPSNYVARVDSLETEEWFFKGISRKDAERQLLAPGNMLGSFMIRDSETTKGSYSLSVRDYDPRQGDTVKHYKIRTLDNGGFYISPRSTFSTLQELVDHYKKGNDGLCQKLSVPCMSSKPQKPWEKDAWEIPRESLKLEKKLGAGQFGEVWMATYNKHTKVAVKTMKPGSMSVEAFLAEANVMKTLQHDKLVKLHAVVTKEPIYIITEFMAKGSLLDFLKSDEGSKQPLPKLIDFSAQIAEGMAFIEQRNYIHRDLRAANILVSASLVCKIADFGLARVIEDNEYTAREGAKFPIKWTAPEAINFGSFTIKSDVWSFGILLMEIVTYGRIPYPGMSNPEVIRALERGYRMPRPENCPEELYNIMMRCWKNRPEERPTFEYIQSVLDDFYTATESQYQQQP
Chain of MLK1(h) (P80192 whole entry): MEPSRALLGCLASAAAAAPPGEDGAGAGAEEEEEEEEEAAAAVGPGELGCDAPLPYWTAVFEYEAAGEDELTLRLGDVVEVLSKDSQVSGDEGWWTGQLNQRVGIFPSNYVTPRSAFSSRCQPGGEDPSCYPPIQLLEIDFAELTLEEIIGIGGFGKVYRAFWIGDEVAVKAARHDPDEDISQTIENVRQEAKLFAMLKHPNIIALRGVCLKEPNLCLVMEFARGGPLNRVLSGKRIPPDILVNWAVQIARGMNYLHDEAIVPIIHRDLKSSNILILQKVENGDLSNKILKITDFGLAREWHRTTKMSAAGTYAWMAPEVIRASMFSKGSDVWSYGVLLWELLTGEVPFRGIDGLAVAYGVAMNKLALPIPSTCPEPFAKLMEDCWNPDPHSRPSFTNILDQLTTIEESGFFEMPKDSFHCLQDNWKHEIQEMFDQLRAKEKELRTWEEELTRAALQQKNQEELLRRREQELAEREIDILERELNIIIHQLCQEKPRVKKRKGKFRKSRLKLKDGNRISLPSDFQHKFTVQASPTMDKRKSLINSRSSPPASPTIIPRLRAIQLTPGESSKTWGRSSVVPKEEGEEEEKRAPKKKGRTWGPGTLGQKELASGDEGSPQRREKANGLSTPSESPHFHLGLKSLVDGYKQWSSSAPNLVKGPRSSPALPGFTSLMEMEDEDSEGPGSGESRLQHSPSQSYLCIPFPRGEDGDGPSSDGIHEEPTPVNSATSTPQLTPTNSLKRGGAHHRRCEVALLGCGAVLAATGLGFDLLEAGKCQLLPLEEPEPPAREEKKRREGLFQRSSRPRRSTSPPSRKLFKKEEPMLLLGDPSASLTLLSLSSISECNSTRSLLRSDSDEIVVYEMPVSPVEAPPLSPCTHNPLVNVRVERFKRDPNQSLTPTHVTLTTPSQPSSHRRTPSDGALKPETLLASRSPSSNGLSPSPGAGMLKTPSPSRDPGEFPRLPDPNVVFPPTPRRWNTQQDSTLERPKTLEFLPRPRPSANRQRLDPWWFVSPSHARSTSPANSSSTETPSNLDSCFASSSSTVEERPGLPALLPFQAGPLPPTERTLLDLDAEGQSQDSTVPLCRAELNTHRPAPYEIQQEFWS

Sequence	% activity (CaMKIIβ(h))	% activity (GRK6(h))	% activity (Hck(h))	% activity (LKB1(h))	% activity (MLK1(h))	% activity (PhKγ2(h))	% activity (PKG1β(h))	% activity (SAPK4(h))
FAKLAARLYRKALARQLGVAA [MMI-0300]	2%	147%	72%	101%	40%	46%	50%	96%
HRRIKAWLKKIKALARQLGVAA [MMI-0500]	3%	174%	78%	51%	43%	16%	24%	48%
KAFAKLAARLYRKALARQLGVAA [MMI-0400]	11%	141%	72%	89%	33%	38%	53%	91%
YARAAARQARAKALNRQLGVA [MMI-0200]	53%	132%	–	99%	84%	86%	57%	–
